# B1: SI-75X3 (other)
# chain 1: EIVLTQSPSTLSVSPGERATFSCRASQSIGTNIHWYQQKPGKPPRLLIKYASESISGIPDRFSGSGSGTEFTLTISSVQSEDFAVYYCQQNNNWPTTFGPGTKLTVLGGGGSGGGGSGGGGSGGGGSQVQLQQSGPGLVKPSETLSITCTVSGFSLTNYGVHWIRQAPGKGLEWLGVIWSGGNTDYNTPFTSRFTITKDNSKNQVYFKLRSVRADDTAIYYCARALTYYDYEFAYWGQGTLVTVSSGGGGSGGGGSEVQLVESGGGLVQPGGSLRLSCAASGFTISTNAMSWVRQAPGKGLEWIGVITGRDITYYASWAKGRFTISRDNSKNTLYLQMNSLRAEDTAVYYCARDGGSSAITSNNIWGQGTLVTVSSASTKGPSVFPLAPSSKSTSGGTAALGCLVKDYFPEPVTVSWNSGALTSGVHTFPAVLQSSGLYSLSSVVTVPSSSLGTQTYICNVNHKPSNTKVDKRVEPKSCDKTHTCPPCPAPEAAGGPSVFLFPPKPKDTLMISRTPEVTCVVVDVSHEDPEVKFNWYVDGVEVHNAKTKPREEQYNSTYRVVSVLTVLHQDWLNGKEYKCAVSNKALPAPIEKTISKAKGQPREPQVYTLPPSRDELTKNQVSLSCAVKGFYPSDIAVEWESNGQPENNYKTTPPVLDSDGSFFLVSKLTVDKSRWQQGNVFSCSVMHEALHNHYTQKSLSLSPG
# chain 2: QSALTQPASVSGSPGQSITISCTGTSSDVGGYNFVSWYQQHPGKAPKLMIYDVSDRPSGVSDRFSGSKSGNTASLIISGLQADDEADYYCSSYGSSSTHVIFGGGTKVTVLGGGGSGGGGSGGGGSGGGGSQVQLQESGGGLVKPGGSLSLSCAASGFTFSSYWMSWVRQAPGKGLEWVANINRDGSASYYVDSVKGRFTISRDDAKNSLYLQMNSLRAEDTAVYYCARDRGVGYFDLWGRGTLVTVSSGGGGSGGGGSDVVMTQSPSTLSASVGDRVTINCQASESISSWLAWYQQKPGKAPKLLIYEASKLASGVPSRFSGSGSGTEFTLTISSLQPDDFATYYCQGYFYFISRTYVNSFGGGTKVEIKRTVAAPSVFIFPPSDEQLKSGTASVVCLLNNFYPREAKVQWKVDNALQSGNSQESVTEQDSKDSTYSLSSTLTLSKADYEKHKVYACEVTHQGLSSPVTKSFNRGECGGDKTHTCPPCPAPEAAGGPSVFLFPPKPKDTLMISRTPEVTCVVVDVSHEDPEVKFNWYVDGVEVHNAKTKPREEQYNSTYRVVSVLTVLHQDWLNGKEYKCAVSNKALPAPIEKTISKAKGQPREPQVYTLPPSRDELTKNQVSLWCLVKGFYPSDIAVEWESNGQPENNYKTTPPVLDSDGSFFLYSKLTVDKSRWQQGNVFSCSVMHEALHNRFTQKSLSLSPG
# notes: tri-miniGNC; D1 αEGFR, D2 αHER3, D3 αCD3 (Fab); also called tri-miniGNC (SI-75X3)
# B2: SI-75X1 (bispecific antibody, human IgG1, kappa, L234A L235A)
# chain 1: B1 chain 1
# chain 2: DVVMTQSPSTLSASVGDRVTINCQASESISSWLAWYQQKPGKAPKLLIYEASKLASGVPSRFSGSGSGTEFTLTISSLQPDDFATYYCQGYFYFISRTYVNSFGGGTKVEIKRTVAAPSVFIFPPSDEQLKSGTASVVCLLNNFYPREAKVQWKVDNALQSGNSQESVTEQDSKDSTYSLSSTLTLSKADYEKHKVYACEVTHQGLSSPVTKSFNRGECGGDKTHTCPPCPAPEAAGGPSVFLFPPKPKDTLMISRTPEVTCVVVDVSHEDPEVKFNWYVDGVEVHNAKTKPREEQYNSTYRVVSVLTVLHQDWLNGKEYKCAVSNKALPAPIEKTISKAKGQPREPQVYTLPPSRDELTKNQVSLWCLVKGFYPSDIAVEWESNGQPENNYKTTPPVLDSDGSFFLYSKLTVDKSRWQQGNVFSCSVMHEALHNRFTQKSLSLSPG
# notes: bi-miniGNC; D1 αEGFR, D3 αCD3 (Fab)
# B3: SI-75X2 (bispecific antibody, human IgG1, kappa, L234A L235A)
# chain 1: EVQLVESGGGLVQPGGSLRLSCAASGFTISTNAMSWVRQAPGKGLEWIGVITGRDITYYASWAKGRFTISRDNSKNTLYLQMNSLRAEDTAVYYCARDGGSSAITSNNIWGQGTLVTVSSASTKGPSVFPLAPSSKSTSGGTAALGCLVKDYFPEPVTVSWNSGALTSGVHTFPAVLQSSGLYSLSSVVTVPSSSLGTQTYICNVNHKPSNTKVDKRVEPKSCDKTHTCPPCPAPEAAGGPSVFLFPPKPKDTLMISRTPEVTCVVVDVSHEDPEVKFNWYVDGVEVHNAKTKPREEQYNSTYRVVSVLTVLHQDWLNGKEYKCAVSNKALPAPIEKTISKAKGQPREPQVYTLPPSRDELTKNQVSLSCAVKGFYPSDIAVEWESNGQPENNYKTTPPVLDSDGSFFLVSKLTVDKSRWQQGNVFSCSVMHEALHNHYTQKSLSLSPG
# chain 2: B1 chain 2
# notes: bi-miniGNC; D2 αHER3, D3 αCD3 (Fab); also called bi-miniGNC (SI-75X2)
# B4: SI-75X5 (bispecific antibody, human IgG1, kappa, L234A L235A)
# chain 1: QVQLQESGGRLVQPGEPLSLTCKTSGIDLSSNAIGWVRQAPGKGLEWIGVIFGSGNTYYASWAKGRFTISRSTSTVYLKMNSLRSEDTAIYYCARGGYSSDIWGQGTLVTVSSASTKGPSVFPLAPSSKSTSGGTAALGCLVKDYFPEPVTVSWNSGALTSGVHTFPAVLQSSGLYSLSSVVTVPSSSLGTQTYICNVNHKPSNTKVDKRVEPKSCDKTHTCPPCPAPEAAGGPSVFLFPPKPKDTLMISRTPEVTCVVVDVSHEDPEVKFNWYVDGVEVHNAKTKPREEQYNSTYRVVSVLTVLHQDWLNGKEYKCAVSNKALPAPIEKTISKAKGQPREPQVYTLPPSRDELTKNQVSLSCAVKGFYPSDIAVEWESNGQPENNYKTTPPVLDSDGSFFLVSKLTVDKSRWQQGNVFSCSVMHEALHNHYTQKSLSLSPG
# chain 2: QSALTQPASVSGSPGQSITISCTGTSSDVGGYNFVSWYQQHPGKAPKLMIYDVSDRPSGVSDRFSGSKSGNTASLIISGLQADDEADYYCSSYGSSSTHVIFGGGTKVTVLGGGGSGGGGSGGGGSGGGGSQVQLQESGGGLVKPGGSLSLSCAASGFTFSSYWMSWVRQAPGKGLEWVANINRDGSASYYVDSVKGRFTISRDDAKNSLYLQMNSLRAEDTAVYYCARDRGVGYFDLWGRGTLVTVSSGGGGSGGGGSDPQLTQSPSSLSATVGQRVTINCQSSQSVAKNNNLAWFQQKPGKPPKLLIYSASTLAAGVPSRFSGSGSGTQFTLTITRVQSEDFATYYCSARDSGNIQSFGGGTRVEIKRTVAAPSVFIFPPSDEQLKSGTASVVCLLNNFYPREAKVQWKVDNALQSGNSQESVTEQDSKDSTYSLSSTLTLSKADYEKHKVYACEVTHQGLSSPVTKSFNRGECGGDKTHTCPPCPAPEAAGGPSVFLFPPKPKDTLMISRTPEVTCVVVDVSHEDPEVKFNWYVDGVEVHNAKTKPREEQYNSTYRVVSVLTVLHQDWLNGKEYKCAVSNKALPAPIEKTISKAKGQPREPQVYTLPPSRDELTKNQVSLWCLVKGFYPSDIAVEWESNGQPENNYKTTPPVLDSDGSFFLYSKLTVDKSRWQQGNVFSCSVMHEALHNRFTQKSLSLSPG
# notes: bi-miniGNC, IgG1; D2 αHER3, D3 αCD3* (Fab); Chain B carries H435R/Y436F (Fc) and R19S (VH of the αHER3 scFv)
# Biological target: T1, human CD3 (human, UniProt P07766 23-126; P04234 22-105)
# T1 construct: also called His-tagged human CD3; human CD3 (Acro CDD-H52W1)
# Test: BLI (Octet), binder on AHC sensor, 100 nM human antigen, 1:1 fit
row,Kd [nM],Binder
1,18.2,B1
2,24,B2
3,27.8,B3
4,44.4,B4

# Biological target: T2, human HER3 (human, UniProt P21860 20-643)
# T2 construct: Soluble antigen in Octet; bought; also called human HER3 (Acro ER3-H5223)
# Test: as above
row,Kd [nM],Binder
1,146,B1
2,162,B3
3,139,B4

# Biological target: T3, human EGFR (human, UniProt P00533 25-645, limits assumed)
# T3 construct: Soluble antigen in Octet; construct not described
# Test: as above
row,Kd [nM],Binder
1,8.47,B1
2,8.11,B2
